The results in this text go back to paper PMC8448731 (Nature Communications, 2021).

B1: SR6c3 (VHH)
VHH: EVQLVESGGGLVQAGDSLRLSCAASGDCHVLWRMGWFRQAPGKEREFVAAISLDGQFTNYADSVRGRFSISADSAKNTVYLQMNSLKPEDTAVYYCAALPFLDYWGQGTQVTVSS
notes: not shown: 6xHis, C-terminal, kept
B2: SR6v9 (VHH)
VHH: EVQLVESGGGLVQAGDSLRLSCAASGDSHVLWRMGWFRQAPGKEREFVAAISLDGQFTNYADSVRGRFSISADSAKYTVYLQMNSLKPEDTAVYYCAALPFLDYWGQGTQVTVSS
notes: as for B1
B3: SR6v1 (VHH)
VHH: EVQLVESGGGLVQAGDSLRLSCAASGDSHVLWRMGWFRQAPGKEREFVAAISLDGQFTNYADSVRGRFSISADSAKNTVYLQMNSLKPEDTAVYYCAALPFLDYWGQGTQVTVSS
notes: as for B1
B4: SR6v7 (VHH)
VHH: EVQLVESGGGLVQAGDSLRLSCAASGDSYILWRMGWFRQAPGKEREFVAAISLDGQFTNYADSVRGRFSISADSAKNTVYLQMNSLKPEDTAVYYCAALPFLDYWGQGTQVTVSS
notes: as for B1
B5: SR2 (VHH)
VHH: EVQLVESGGGLVQAGDSLRLSCAASGAFGSNVFMGWFRQAPGKEREFVASITPHHTVTDYADSVRGRFSISADSAKNTVYLQMNSLKPEDTAVYYCAAAIYRNASVLDYWGQGTQVTVSS
notes: as for B1
B6: SR1 (VHH)
VHH: EVQLVESGGGLVQAGDSLRLSCAASGKTGRSVIMGWFRQAPDKEREFVATITRGDDTTNYADSVKGRFTISRDDARNTVYLQMNSLKPEDTAVYYCAAVYFVNDCIVDYWGQGTQVTVSS
notes: as for B1
B7: SR12c3 (VHH)
VHH: EVQLVESGGGLVQAGDSLRLSCAASGAIVHVFAMGWFRQAPGKEREFVASINLDNDVTNYADSVKGRFTISRDDARNTVYLQMNSLKPEDTAVYYCNATIFTDSGLGDYWGQGTQVTVSS
notes: as for B1
B8: SR12 (VHH)
VHH: EVQLVESGGGLVQAGDSLRLSCAASGAIVHVFAMGWFRQAPGKEREFVASINLDNDATNYADSVKGRFTISRDDARNTVYLQMNSLKPEDTAVYYCNATIFMDSDLGDYWGQGTQVTVSS
notes: as for B1

In the assay the target is T1, SARS-CoV-2 spike RBD with C-terminal 3xFlag tag and N-terminal signal peptide of the spike (RBD-3xFlag) (SARS-CoV-2, Wuhan-Hu-1 type (wild type), UniProt P0DTC2).
T1 construct: also called RBD-3×Flag; wild-type RBD; not shown: 3xFlag, C-terminal, kept
Description: ELISA. The settings on record: one partner purified.
For the molecule B1, the binding result is on record as “binds”. Take B2: the binding result is on record as “binds”. Under B3 stands “binds”; under B4, “binds”; under B5, “binds”. To B6 belongs “binds”; to B7, “binds”.

On to B8, for which the binding result is “binds”.
